Assay results: PMC11216177

Target: H4K20R recombinant nucleosomes containing FLAG-tagged H2A and H4K20R
Assay: pull-down

fold binding to H4K20R nucleosomes compared with WT nucleosomes [fold] | fold binding to H4K20R nucleosomes relative to WT nucleosomes [fold] | Binder
1.8 | – | GFP-L(3)mbt (natural protein) MMALKMLYRGPSSRLENLIEKIQATKEITNNDMYSTHTSSSYSPSISDGTMTPNSHHLIGAPTAAGQEDHPTEGKINGGADGEDLPKPKRLPHFHHHHHHHYHHQQALKIANKLRKINKEAKMGATAGGGATGAASKFDKLTGEGIKSRGDGSYQCQFCEKTFPRLGYLKHHVQSHAEHLPFKCEYCSKLFKHKRSRDRHKKLHTNERNYKCPHCEAAFSRSDHLKIHMKTHDIQKPFQCSMCNRGYNTAAALTSHMQKHKKNAAILAAGGNPNALNYSPRSTGSASASVSSNGSLQKRRYALALASDSSPSRMDFPKRSRSNHVGGTTTTATPTPLLRCSYCPKVTEFSSLEQLNAHLQSVHEQPQTQAVKTPVQEGEGFQLSCEYCTMKFGNIAGLFQHMRSTHMDRLSSPNSYYEHFNRLATAGTFSPRLALDLPKIKPDLGSPERESRPAEDDLPTDLSNNKRRPLTPNPQAQTPLAPPSAPPGVFFCNQCNAGLPDFESFRNHLKSHIAEGMQLVCPHCGMSLPEQSEFERHVVGHFLITGSEFNCSSSCGKSFAKSEDLQQHLLSEHVLTLLKCSLCSELCESRMAMQLHLACAHSQETKLLRCSACLELFRSDAEFHVHVKTRHQLGGHPTLGATSSAPTNPLQCMFCRAVCSSELEMHFHLAAHARQFRCPSCPETFHVEFLLDRHMQSQHGGVKDKEANSPNMGSLYVNALLPPLAAAAAAAAATNNNSSIIDYNVAFKGLFGGASGGAGSGGGGAQSGGAPPSANKFYSPLQVDTNALKAQTSPHPALMYGLSQRYLMEMYAAKSTSPSGNEGVGNSQPPAPQATAPPPPPNASTATFSCGMCERQDLRSEAELHSHRKLAHNLKTGVSLRCAYCAGNFKSRAELEQHMKSCHNSTGKHKCLICDEVFPSPAILAEHKLQHSKVGQSGKCSHCGQPLEDVAAFRAHLSEHGSDGASLPLACICCRQTLHSEFELSLHAKFHTKSSSSGGSLQEPVCALCLEPLPDATEGPAKLCDKCCRKHNLNGKRGKHSEPATSLPAPPSAFVENRCNLCKMILPHAQKLQEHLVEHTFAGTEQRGFNCYICSAVFTAPGGLLNHMGEHGAHSRPYDCNLCPEKFFFRAELEHHQRGHELRPQARPPAAKVEVPSIRNTSPGQSPVRSPTIVKQELYETDTVESAGVEDEPENHPDEEEYIEVEQMPHETRPSGIGSQLERSTSSA
– | 14.5 | Set8 (enzyme) MIMVRRRQRPAKEAASSSSGGASSGSGIPVDQALPLNVAGNLLEDQYFASPKRKDCRLMKVTQNGQLPEATMMAHNKDNKAGRTIGVPLATRSQTRTIENFFKANAAAKDSQKTIHTEEQLNLGNQELKLDDEELNGQIKLDDEVLKLADKQINENLPFADEVDAKAEQKLMDEELQQVVEELLFDGSSRASSNSPFYQHDMDVMQEIQQTPEIPHIKKVTEPLEGLGSLADFQTHRSALRDSHSSTHSSSTDNIFLQEPVLTLDIDRTPTKASSIKINRSFELAGAVFSSPPSVLNACLNGRFNQIVSLNGQKEALDLPHFDLDQHDSSSCDSGVACGLTANTESPAGQPRRRKPATPHRILCPSPIKTALKVTGGICKVGSADPLSPRKSPRKLPTTTAAVAACKSRRRLNQPKPQAPYQPQLQKPPSQQQQQQQDDIVVVLDDDDDEGDDEDDVRALIKAAEERENQNKAPATANSNKAGMKTMLKPAPVKSKTKSKGPTKGQPPLPLAATNGNREMTDFFPVRRSVRKTKTAVKEEWMRGLEQAVLEERCDGLQVRHFMGKGRGVVADRPFKRNEFVVEYVGDLISIGEAAEREKRYALDENAGCYMYYFKHKSQQYCIDATVDTGKLGRLINHSRAGNLMTKVVLIKQRPHLVLLAKDDIEPGEELTYDYGDRSKESLLHHPWLAF
